Source: patent US20110021611A1

Biological target: CD81 on Huh7.5 cells (human) (UniProt P60033)
Test: cell-based or functional assay

UniProt P60033, sequence (P60033 whole entry): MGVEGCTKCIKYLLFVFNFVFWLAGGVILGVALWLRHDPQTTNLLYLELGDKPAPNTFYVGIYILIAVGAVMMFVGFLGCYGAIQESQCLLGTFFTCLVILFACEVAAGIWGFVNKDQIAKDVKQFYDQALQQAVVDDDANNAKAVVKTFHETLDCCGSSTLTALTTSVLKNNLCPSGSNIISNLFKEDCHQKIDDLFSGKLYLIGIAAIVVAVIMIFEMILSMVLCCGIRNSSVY

anti-CD81 (JS-81, BD Biosciences, Pharmingen) (antibody)
inhibition of infection of Huh7.5 cells with SA13/JFH1C3405G-A3696G virus (FFU count): 90 % inhibition
